Experimental data as given in article PMC5800945 (Journal of molecular biology, 2017).

Molecular target: histone chaperone Anti-silencing factor 1 (Asf1) (Saccharomyces cerevisiae S288c)
Assay: crystal structure

Sequence of histone chaperone Anti-silencing factor 1 (Asf1) (Saccharomyces cerevisiae S288c) (P32447 2-154): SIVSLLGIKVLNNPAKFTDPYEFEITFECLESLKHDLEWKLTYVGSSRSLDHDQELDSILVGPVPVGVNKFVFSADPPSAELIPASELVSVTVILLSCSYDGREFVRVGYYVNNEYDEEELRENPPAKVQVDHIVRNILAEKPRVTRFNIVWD

binding result	Binder
binds	Fab1H (anti-Asf1 Fab, wild-type switch region) (Fab, V domains shown) VH: EVQLVESGGGLVQPGGSLRLSCAASGFNVSYSSIHWVRQAPGKGLEWVAYIYPSSGYTSYADSVKGRFTISADTSKNTAYLQMNSLRAEDTAVYYCARSYSTKLAMDYWGQGTLVTVSS VL: DIQMTQSPSSLSASVGDRVTITCRASQSVSSAVAWYQQKPGKAPKLLIYSASSLYSGVPSRFSGSRSGTDFTLTISSLQPEDFATYYCQQSQWYPITFGQGTKVEIK
binds	Fab1H-VSRRLP (Fab, V domains shown) VH: EVQLVESGGGLVQPGGSLRLSCAASGFNVSYSSIHWVRQAPGKGLEWVAYIYPSSGYTSYADSVKGRFTISADTSKNTAYLQMNSLRAEDTAVYYCARSYSTKLAMDYWGQGTLVTVVS VL: DIQMTQSPSSLSASVGDRVTITCRASQSVSSAVAWYQQKPGKAPKLLIYSASSLYSGVPSRFSGSRSGTDFTLTISSLQPEDFATYYCQQSQWYPITFGQGTKVEIK
binds	Fab1H-FNQIKG (Fab, V domains shown) VH: EVQLVESGGGLVQPGGSLRLSCAASGFNVSYSSIHWVRQAPGKGLEWVAYIYPSSGYTSYADSVKGRFTISADTSKNTAYLQMNSLRAEDTAVYYCARSYSTKLAMDYWGQGTLVTVFN VL: DIQMTQSPSSLSASVGDRVTITCRASQSVSSAVAWYQQKPGKAPKLLIYSASSLYSGVPSRFSGSRSGTDFTLTISSLQPEDFATYYCQQSQWYPITFGQGTKVEIK
